Source: patent US20140186823

Experiments:
[1] = target: MS-(B1-L88N)8 L88N (Mycobacterium smegmatis) (UniProt A0QR29); conditions: four 5' 2'-O-methyl-uracil on SEQ 19; 3' Cholesteryl-TEG on SEQ 20; mean S.D. of current levels; helicase translocation, +140 mV; unit assumed
[2] = target: MspA NNN-RRK pore MS-(B1)8 (Mycobacterium smegmatis) (UniProt A0QR29); conditions: four 5' 2'-O-methyl-uracil on SEQ 19; 3' Cholesteryl-TEG on SEQ 20; mean S.D. of current levels; helicase translocation, +140 mV; unit assumed

In the case of “NNNNTTTTTTTTTTTTTTTTTTTTTTTTTTTTTTTTTTTTTTTTTTTTTTTTTTGGTTGTTTCTGTTGGTGCTGATATTGCTTTTGATGCCGACCCTAAATTTTTTGCCTGTTTGGTTCGCTTTGAGTCTTCTTCGGTTCCGACTACCCTCCCGACTGCCTATGATGTTTATCCTTTGAATGGTCGCCATGATGGTGGTTATTATACCGTCAAGGACTGTGTGACTATTGACGTCCTTCCCCGTACGCCGGGCAATAACGTTTATGTTGGTTTCATGGTTTGGTCTAACTTTACCGCTACTAAATGCCGCGGATTGGTTTCGCTGAATCAGGTTATTAAAGAGATTATTTGTCTCCAGCCACTTAAGTGAGGTGATTTATGTTTGGTGCTATTGCTGGCGGTATTGCTTCTGCTCTTGCTGGTGGCGCCATGTCTAAATTGTTTGGAGGCGGTC / GCAATATCAGCACCAACAGAAACAACCTTTTTTTTTTTTTTTTTTTTTTTTTTTTTT”, the activity [1] is reported as 1.79 pA and the activity [2] is reported as 2.3 pA.
